Laboratory results: patent US20160207996A1 (ARGEN X N V, published 2016)

molecular target: human Nav1.7 (full length) (human) (UniProt Q15858); assay: cell-based or functional assay

Binder | % inhibition of inward current following P02 voltage protocol, 10 µg/ml [%] | % inhibition of inward current following P02 voltage protocol, 25 µg/ml [%] | % inhibition of inward current following P02 voltage protocol, 100 µg/ml [%]
9A6 (antibody, V domains shown) VH: EVQLVQPGAELRNPGASVKVSCKASGYTYTSAYIVWVRQAPGEGLEWMGRIDPEDGGTKYAQKFQGRVTFTADTSTNTAYVELSSLRSDDTAVYYCTAGLDYWGKGTLVTVSS VL: ATMLTQSPGSLSVVPGESASISCKASQSLVHSDGMTYLYWLQQKPGQSPQRLIYRVSRRGSGVPDRFTGSGSGTDFTLNISDMKAEDAGVYYCAQDTYYPYSFGSGTSVEIK | 16.9 | 28 | 36.2

molecular target: T1, Nt-GCGR-hFc (human, UniProt P47871 26-136); assay: scFv binding ELISA, periplasmic extract on coated Nt-GCGR
T1 construct: domain: N-terminal domain; also called Nt-GCGR-Fc; recombinant N-terminal domain of GCGR; not shown: hFc
T1 sequence (P47871 26-136): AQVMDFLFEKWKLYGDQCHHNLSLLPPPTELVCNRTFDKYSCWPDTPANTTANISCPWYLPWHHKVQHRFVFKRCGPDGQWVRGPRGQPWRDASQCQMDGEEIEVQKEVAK

Binder | ScFv binding ELISA signal
scFv D5 (scFv) EVQVQESGGGLVQPGGSLRLSCATSGFTFSNYYMSWVRQAPGKGPEWVSSIYSDLSTTYYADSVKGRFTISRDRAKNTLYLQMNSLKSEDTAVYYCARLSTVAGVDYWGKGTLVTVSSSYELTQSPSVSVALRQTAKITCGGNNIGDKSAQWYQQKPDQAPVLVIYADNRRPSEIPERFSGSNSGDTATLTISGAQAEDEADYYCQVWDSGANAAVFGGGTHLTVLG | 0.268
scFv A7 (scFv) QLQVVESGGGLVQPGGSLRLSCATSGFTFSNYYMSWVRQAPGKGPEWVSSIYSDLSTTYYADSVKGRFTISRDRAKNTLYLQMNSLKSEDTAVYYCARLSTVAGVDYWGKGTLVTVSSSYELTQSPSVSVALRQTAKITCGGNNIGSKSAQWYQQKPGQAPVLVIYADSRRPSGIPEKFSGSNSGNTATLTISGAQAEDEADYYCQVWDSSANAAVFGGGTHLTVLG | 0.394
scFv B4 (scFv) EVQVQESGPGLVKPSQTLSLTCTVSGGSITTDYSYWSWIRQPPGKGLEWMGAIAFSDTTYYSPSLKSRTSISRDTSKNQFTLQLSSVTPEDTAVYYCARLSTVAGMDYWGKGTLVTVSSASAAASGSYELTQSPSVSVALRQTAKITCGGNNIGSKSAQWYQQKPGQAPVLVIYADNRRPSEIPERFSGSNSGDTATLTISGAQAEDEADYYCQVWDSSANAAVFGGGTHLTVLG | 0.476
scFv B2 (scFv) EVQLQESGGGLVQPGGSLRLSCATSGFTFSNYYMSWVRQAPGKGPEWVSSIYSDLSTTYYADSVKGRFTISRDRAKNTLSLQMNSLKSEDTAVYYCARLSTVAGVDYWGKGTLVTVSSSYELTQSPSVSVALRQTAKITCGGNNIGSKSAQWYQQKPGQAPVLVIYADSRRPSGIPERFSGSNSGNTATLTISGAQAEDEADYYCQVWDSSAAVFGGGTHLTVLG | 0.137
scFv D7 (scFv) QVQLVESGGGLVQPGGSLRLSCAASGFTFSWYAMSWVRQGPGKGLEWVSAINGGGGSTSYEDSVKGRFTISRDNAKNTLYLEMNSLKPEDTAVYYCARYSDGYSGSYTYTDMDYWGKGTLVTVSSQAVVTQEPSLSVSPGGTVTLTCGLSSGSVTSSNYPVWYQQTPGQAPHLLIYNTNTRHSGVPSRFSGFISGNKAALTITGAQPEDEADYYCASYRRSGRAVFGGGTHLTVLG | 0.1
scFv C12 (scFv, part only; not given: GS linker, not shown: small tags and cut ends) scFv, part: ELQVVESGGGLVPGGSLRLSCAASGFRVSVNAMSWVRQAPGKGLEWVSHIGSGGITGYADSVKGRFTISRDSAKNTLYLQMNSLKPEDTAVYYCTKRSSGYAWGQGTQVTVSSQAGLTQLPSVSGSPGQKITISCTGSSNNIGAGYSVQWFQQVPGSPPRLLIDGATNRDSGVPDRFSDSRSGSSASLTITGLQAEDEADYYWMLQQPQGVLCSAEGPI | 2.56
scFv A5 (scFv) ELQLVESGGGLVQPGGSLRLSCAASGSTFSTAAMSWVRQAPGKGLEWVSAISSFGASTSYADSVKGRFTISRDIAKNTLYLQMNSLKPEDAAVYYCANVGLHPSWGFTSGFWGQGTQVTVSSSSALTQPPSVSGSPGKTVTISCAGTSSDVGYGNYVSWYQQLPGMAPKLLIHDVNKRASGITDRFSGSKSGNTASLTISGLQSEDEADYYCASYRRRNEVVFGGGTHLTVLG | 1.31
scFv D8 (scFv) EVQLVESEGGSVQPGDSLRLSCAASGFSFSNAGMSWVRQAPGKGLEWVSAIIPGGYAPYYADSVKGRFTISRDNAKNTVSLQMNSLKPEDTALYYCAKYGGNWDLEVWGQGTLVTVSSQSALTQPPSVSGTLGKTVTISCTGTSSDIGGYNSVSWYQQLPGTAPKLLIYEVNKRASGIPDRFSGSKSGDTASLTISGLQSADEADYYCASYRNTRKSVFGGGTHLTVLG | 1.14
scFv A4 (scFv) QLQVVESGGGLVQPGGSLRLSCAASGFTFDSYWMYWVRQAPGKGLEWLSAINPGGGMTYYADSVKGRFTIARDNAKNTVYLQMNSLKSEDTAVYYCAKELRGSYYYISSEYDYWGQGTQVTVSSLPVLTQPPSVSGTLGKTVTISCAGTSSDIGDYNYVSWYQQLPGTAPKLLIYKVSTRASGIPDRFSGSKSGNTASLTISGLQSEDEADYYCASYRTSNNVVFGGGTHLTVLG | 0.342
scFv A1 (scFv) QVQLVESGGGLVQPGGSLRLSCAASGFTFSSYAMTWVRQAPGKGLEWVSTITSNGDSTSYADSVKGRFTISRDNAKNTLYLQMDSLKPEDTAVYYCAKLGDGSYWFYYYGMDYWGQGTQVTVTSSSYELTQSSAVSLSLGQTARITCQGDNLGRYYVNWYQQKPGQAPVQVIYGNSNRPSGIPERFSGSSSGGTATLTISGAQAEDEADYYCQTYENSGVNLVFGGGTKLTVLG | 2.18
scFv B5 (scFv, part only; not given: GS linker, not shown: small tags and cut ends) scFv, part: EVQLVQPGAELRNPGASVKVSCKASGYTFTSHYIDWVRQAPGQGLEWMGRIDPEDGGTTYEQKFQGRVTFTADTSTSTVYVELSSLRSEDTAVYYCARSTEIPTIRYYGMDYWGKGTPVTVSSQSVLTQPSAVSVSLGQTARITCQGGSLGSYGANWHQQKPGQAPVLLIYGDNSRPSGIPERFSGSKSGGTATLTISGAQAEDEADYYCQSFDYSGNAVFGGGTHLTVLG | 0.508
scFv A8 (scFv) EVQVQESGPGLVKPSQTLSLTCTVSGESITTNYYYWNWIRQPPGKALEWMGAIGDSGTTWYNPSLKSRTSISRDTSKNQFTLQLISVTPEDTAVYYCARGFYDGSSLDFASWGQGTQVTVSSLSYELTQSPSVSVALRQAAKITCGGNNIASKFVNWYQQKPGQAPILVISKDTNRPSGIPERFSGSNSGNTATLTVSGAQAEDEADYYCQVWDGSAAVFGGGTHLTVLG | 1.7
scFv B8 (scFv) QVQLVESGGGLVQPGGSLRLSCATSGFTFSNYYMSWVRQAPGKGPEWVSSIYSDLSTTYYADSVKGRFTISRDRAKNTLYLQMNSLKSEDTAVYYCARLSTVAGMDYWGKGTLVTVSSSYELTQSPSVSVALRQTAKITCGGTNIGSKSAQWYQQKPGQAPMLVIYGDSRRPSGIPERFSGSNSGNTATLTISGAQAEDEADYYCQVWDSSANAAVFGGGTHLTVLG | 0.205
scFv D6 (scFv, part only; not given: GS linker, not shown: small tags and cut ends) scFv, part: QLQLVESGGGLVQPGGSLRLSCAASGGIFDVMGWYHQAPGKQRGLVASITPAGSTNYADSVKGRFTISRDNAKNTVYLQMNSLKPDDTGVYYCYADGIDPRYGGDEFWGQGTQVTVSSSYELTQSPSVSVALRQTAKITCGGDNIGSKSAQWYQQKPGQAPVLVIYAGSRRPSGIPERFSGSNSGNTATLTVSGAQAEDEANYSCQVWDSSANASVFGGGTHLTVLG | 1.09
